Protein stability index data for 15 sequences are collected here from the supplement of paper PMC10724198.

± gives the standard deviation of the averaged measurements.

Data set [1] relates to Saccharomyces cerevisiae. Description: protein stability index of tFT-peptide fusion (C-terminal peptide) (PSI (0-1 scale)); higher = more stable (slower turnover). How it is done:
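MPS profiling in S. cerevisiae of the tFT-X12 degron library: putative degron peptides plus stable controls, 12 aa, fused to the C-terminus of a sfGFP-mCherry timer. Cells are FACS-sorted into 8 mCherry/sfGFP bins and deep-sequenced. PSI runs from 0 (unstable) to 1 (stable). Backgrounds are wild type, das1Δ and doa10Δ at 30 °C, and wild type, das1Δ, cdc34-1 and cdc53-1 at 37 °C; 2-3 technical replicates each.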

For data set [2], the system named is Saccharomyces cerevisiae. The data set is described as above. The settings on record: genetic background: wild type; temperature: 30 C.
Setting [3] is: genetic background: cdc34-1, temperature: 37 C.
Where [4] appears, read: genetic background: cdc53-1, temperature: 37 C.
[5] abbreviates: genetic background: das1 deletion, temperature: 30 C.
The mark [6] stands for this setting: genetic background: das1 deletion, temperature: 37 C.
Where [7] appears, read: genetic background: doa10 deletion, temperature: 30 C.
Where [8] appears, read: genetic background: wild type, temperature: 30 C.
The mark [9] stands for this setting: genetic background: wild type, temperature: 37 C.
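Note: PSI is a weighted mean of sequencing reads over stability bins, variants kept only with over 10 reads, mCherry proximal and sfGFP distal, peptide attached via GGGS linker.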

As to VGVSCLVFFGVV, the protein stability index in data set [1] (setting [3]) is 0.644 ± 0.023; in data set [1] (setting [4]), 0.653 ± 0.0091; in data set [1] (setting [5]) it was 0.511 ± 0.017; in data set [1] (setting [6]), 0.6636 ± 0.0025; in data set [1] (setting [7]), 0.484 ± 0.026; in data set [1] (setting [8]), 0.509 ± 0.021. The protein stability index was found to be 0.633 ± 0.0085 in data set [1] (setting [9]) and 0.549 ± 0.11 in data set [2].
As to VIAYSLLSWGDF, the protein stability index was 0.308 ± 0.0034 in data set [1] (setting [3]); 0.341 ± 0.019 in data set [1] (setting [4]); 0.378 ± 0.04 in data set [1] (setting [5]); 0.319 ± 0.023 in data set [1] (setting [6]); 0.403 ± 0.029 in data set [1] (setting [7]); 0.371 ± 0.021 in data set [1] (setting [8]). For the same sequence, the protein stability index in data set [1] (setting [9]) came to 0.305 ± 0.016; in data set [2], 0.371 ± 0.028.
With VLDFSVPRHVLH, the protein stability index stood at 0.696 ± 0.014 in data set [1] (setting [3]); 0.7655 ± 0.0041 in data set [1] (setting [4]); 0.66 ± 0.0056 in data set [1] (setting [5]); 0.7364 ± 0.0016 in data set [1] (setting [6]); 0.661 ± 0.013 in data set [1] (setting [7]); 0.678 ± 0.035 in data set [1] (setting [8]). Further, the figures for the protein stability index in data set [1] (setting [9]) and in data set [2] were 0.7472 ± 0.0033 and 0.707 ± 0.024, respectively.
Turning to VLFFCLVIYVGV, the protein stability index was 0.187 ± 0.0071 in data set [1] (setting [3]); 0.23702 ± 9.6e-05 in data set [1] (setting [4]); 0.183 ± 0.015 in data set [1] (setting [5]); 0.29 ± 0.035 in data set [1] (setting [6]); 0.141 ± 0.015 in data set [1] (setting [7]); 0.187 ± 0.027 in data set [1] (setting [8]). The protein stability index in data set [1] (setting [9]) came out at 0.26 ± 0.0013; in data set [2] it was 0.217 ± 0.018.
On to VLILFFLVVFYV, for which the protein stability index in data set [1] (setting [3]) came to 0.217 ± 0.015; in data set [1] (setting [4]) it was 0.294 ± 0.0088; in data set [1] (setting [5]), 0.267 ± 0.033; in data set [1] (setting [6]) it was 0.347 ± 0.018; in data set [1] (setting [7]), 0.2543 ± 0.0024; in data set [1] (setting [8]), 0.237 ± 0.021. Also, the protein stability index in data set [1] (setting [9]) was found to be 0.3358 ± 0.0033; in data set [2], 0.262 ± 0.037.
As to VLLCASPMLAVV, the protein stability index worked out at 0.343 ± 0.028 in data set [1] (setting [3]); 0.356 ± 0.022 in data set [1] (setting [4]); 0.289 ± 0.024 in data set [1] (setting [5]); 0.423 ± 0.0087 in data set [1] (setting [6]); 0.249 ± 0.0027 in data set [1] (setting [7]); 0.297 ± 0.011 in data set [1] (setting [8]). Moreover, the protein stability index was 0.39 ± 0.0039 in data set [1] (setting [9]) and 0.393 ± 0.03 in data set [2].
For the sequence VLLCGCVWLWWG, the protein stability index is 0.437 ± 0.034 in data set [1] (setting [3]); 0.507 ± 0.006 in data set [1] (setting [4]); 0.371 ± 0.038 in data set [1] (setting [5]); 0.5248 ± 0.004 in data set [1] (setting [6]); 0.349 ± 0.013 in data set [1] (setting [7]); 0.364 ± 0.014 in data set [1] (setting [8]). For the same sequence, the protein stability index in data set [1] (setting [9]) stood at 0.5013 ± 0.0039; in data set [2], 0.4494 ± 0.0012.
As to VLLFGLAFFFSF, the protein stability index in data set [1] (setting [3]) turned out to be 0.422 ± 0.058; in data set [1] (setting [4]), 0.4953 ± 0.0026; in data set [1] (setting [5]), 0.367 ± 0.053; in data set [1] (setting [6]), 0.537 ± 0.036; in data set [1] (setting [7]) it was 0.222 ± 0.013; in data set [1] (setting [8]), 0.241 ± 0.029. Also, the protein stability index is 0.408 ± 0.033 in data set [1] (setting [9]) and 0.371 ± 0.055 in data set [2].
On to VLLGYPRILSLF, for which the protein stability index in data set [1] (setting [3]) is 0.7 ± 0.059; in data set [1] (setting [4]), 0.8278 ± 0.002; in data set [1] (setting [5]) it was 0.681 ± 0.0075; in data set [1] (setting [6]), 0.8122 ± 0.0047; in data set [1] (setting [7]), 0.1646 ± 0.0013; in data set [1] (setting [8]) it was 0.167 ± 0.021. The protein stability index in data set [1] (setting [9]) is 0.25 ± 0.0096; in data set [2], 0.35 ± 0.061.
Turning to VLLRSRLLRRLS, the protein stability index turned out to be 0.588 ± 0.055 in data set [1] (setting [3]); 0.6547 ± 0.0063 in data set [1] (setting [4]); 0.67 ± 0.048 in data set [1] (setting [5]); 0.72 ± 0.033 in data set [1] (setting [6]); 0.137 ± 0.013 in data set [1] (setting [7]); 0.137 ± 0.038 in data set [1] (setting [8]). In addition, the values for the protein stability index in data set [1] (setting [9]) and in data set [2] were 0.235 ± 0.02 and 0.211 ± 0.024, respectively.
For VLRCIWLCFLSV, the protein stability index was 0.487 ± 0.025 in data set [1] (setting [3]); 0.5129 ± 0.0034 in data set [1] (setting [4]); 0.439 ± 0.034 in data set [1] (setting [5]); 0.607 ± 0.032 in data set [1] (setting [6]); 0.448 ± 0.039 in data set [1] (setting [7]); 0.4 ± 0.013 in data set [1] (setting [8]). Also, the protein stability index in data set [1] (setting [9]) is 0.561 ± 0.036; in data set [2], 0.465 ± 0.043.
In the case of VLRLVLFVLISV, the protein stability index in data set [1] (setting [3]) was 0.311 ± 0.065; in data set [1] (setting [4]) it was 0.348 ± 0.019; in data set [1] (setting [5]), 0.277 ± 0.03; in data set [1] (setting [6]), 0.387 ± 0.016; in data set [1] (setting [7]) it was 0.2853 ± 0.0015; in data set [1] (setting [8]), 0.268 ± 0.015. The values for the protein stability index in data set [1] (setting [9]) and in data set [2] were 0.352 ± 0.016 and 0.337 ± 0.0069, respectively.
Turning to VLSCVWFVVVGV, the protein stability index in data set [1] (setting [3]) was 0.247 ± 0.013; in data set [1] (setting [4]), 0.316 ± 0.034; in data set [1] (setting [5]) it was 0.245 ± 0.028; in data set [1] (setting [6]), 0.441 ± 0.019; in data set [1] (setting [7]), 0.202 ± 0.0034; in data set [1] (setting [8]), 0.22 ± 0.033. Besides, the protein stability index in data set [1] (setting [9]) is 0.4017 ± 0.0016; in data set [2] it was 0.3596 ± 0.00083.
As for VLYWTGTLFVSL, the protein stability index was determined as 0.208 ± 0.00082 in data set [1] (setting [3]); 0.355 ± 0.0038 in data set [1] (setting [4]); 0.218 ± 0.017 in data set [1] (setting [5]); 0.426 ± 0.0064 in data set [1] (setting [6]); 0.195 ± 0.019 in data set [1] (setting [7]); 0.233 ± 0.028 in data set [1] (setting [8]). Further, the protein stability index in data set [1] (setting [9]) was 0.424 ± 0.038; in data set [2], 0.307 ± 0.035.
As to VPIIVVVYVFVT, the protein stability index in data set [1] (setting [3]) worked out at 0.13 ± 0.022; in data set [1] (setting [4]), 0.247 ± 0.11; in data set [1] (setting [5]) it was 0.157 ± 0.03; in data set [1] (setting [6]), 0.306 ± 0.024; in data set [1] (setting [7]), 0.105 ± 0.025; in data set [1] (setting [8]) it was 0.134 ± 0.038. Further, the protein stability index in data set [1] (setting [9]) is 0.258 ± 0.0081; in data set [2], 0.203 ± 0.085.
